Values quoted from earlier work in PMC4448172.

Target: KV1.3 (UniProt P22001)
Chain of UniProt P22001 (P22001 whole entry): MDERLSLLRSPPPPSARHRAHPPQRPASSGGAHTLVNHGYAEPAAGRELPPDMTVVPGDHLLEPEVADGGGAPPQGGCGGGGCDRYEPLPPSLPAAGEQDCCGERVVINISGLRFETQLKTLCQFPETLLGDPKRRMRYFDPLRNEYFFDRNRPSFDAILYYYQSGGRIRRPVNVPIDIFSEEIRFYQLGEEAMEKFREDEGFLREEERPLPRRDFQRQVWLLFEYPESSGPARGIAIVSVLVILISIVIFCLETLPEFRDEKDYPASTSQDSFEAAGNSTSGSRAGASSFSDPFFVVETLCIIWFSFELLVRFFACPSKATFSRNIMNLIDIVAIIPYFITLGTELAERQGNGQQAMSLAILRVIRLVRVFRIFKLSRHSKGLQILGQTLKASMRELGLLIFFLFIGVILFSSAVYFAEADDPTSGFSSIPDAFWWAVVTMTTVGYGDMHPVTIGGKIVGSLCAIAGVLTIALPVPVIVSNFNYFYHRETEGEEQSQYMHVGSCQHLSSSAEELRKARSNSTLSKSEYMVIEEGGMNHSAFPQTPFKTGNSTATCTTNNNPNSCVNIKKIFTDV

ShK (from UniProt P29187)
Kd: 0.011 nM
